Patent US20240190989A1 (BEIGENE SWITZERLAND, published 2024)

T1: CEACAM3 transiently expressed on HEK293 cells (Homo sapiens (Human), UniProt P40198 35-252)
T1 sequence: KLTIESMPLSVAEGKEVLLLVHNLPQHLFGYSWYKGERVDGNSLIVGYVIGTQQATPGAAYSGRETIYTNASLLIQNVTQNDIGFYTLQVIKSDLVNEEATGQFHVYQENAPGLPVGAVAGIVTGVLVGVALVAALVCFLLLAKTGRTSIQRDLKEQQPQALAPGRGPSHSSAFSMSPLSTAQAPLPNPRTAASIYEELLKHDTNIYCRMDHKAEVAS

T2: human CEACAM6, amino acids 1-320 with C-terminal 6xHis tag (human, UniProt P40199 35-320)
T2 sequence: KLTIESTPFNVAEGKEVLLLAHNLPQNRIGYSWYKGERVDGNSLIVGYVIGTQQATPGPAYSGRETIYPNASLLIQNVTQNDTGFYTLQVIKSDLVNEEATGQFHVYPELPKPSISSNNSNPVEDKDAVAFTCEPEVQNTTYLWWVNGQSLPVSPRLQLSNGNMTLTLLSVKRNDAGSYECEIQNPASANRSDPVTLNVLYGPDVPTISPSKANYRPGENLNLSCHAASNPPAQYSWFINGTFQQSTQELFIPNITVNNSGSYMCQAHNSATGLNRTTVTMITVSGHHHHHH

T3: CEACAM1 (Cat. No. 10822-H08H, Sino Biological) (Homo sapiens (Human), UniProt P13688 35-428)
T3 construct: Bought protein
T3 sequence: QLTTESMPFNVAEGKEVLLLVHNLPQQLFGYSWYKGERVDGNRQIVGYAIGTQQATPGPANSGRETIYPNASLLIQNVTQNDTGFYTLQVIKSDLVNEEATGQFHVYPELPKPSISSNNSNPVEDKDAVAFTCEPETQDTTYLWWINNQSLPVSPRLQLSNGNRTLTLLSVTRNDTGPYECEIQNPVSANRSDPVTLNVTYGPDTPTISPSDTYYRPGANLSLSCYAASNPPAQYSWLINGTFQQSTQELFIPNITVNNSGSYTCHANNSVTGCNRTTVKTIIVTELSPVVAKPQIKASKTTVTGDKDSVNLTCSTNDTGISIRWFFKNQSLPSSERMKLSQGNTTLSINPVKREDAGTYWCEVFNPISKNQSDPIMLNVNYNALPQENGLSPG

T4: CEACAM8 transiently expressed on HEK293 cells (Homo sapiens (Human), UniProt P31997 35-320)
T4 sequence: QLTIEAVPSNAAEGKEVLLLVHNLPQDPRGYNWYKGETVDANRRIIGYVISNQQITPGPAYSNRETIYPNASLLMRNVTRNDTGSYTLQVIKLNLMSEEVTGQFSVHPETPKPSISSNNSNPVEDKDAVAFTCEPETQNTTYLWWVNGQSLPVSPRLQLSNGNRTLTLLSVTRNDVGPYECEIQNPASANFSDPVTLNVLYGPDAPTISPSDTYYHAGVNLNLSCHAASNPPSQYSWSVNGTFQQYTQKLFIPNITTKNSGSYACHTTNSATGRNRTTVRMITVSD

T5: CEACAM7 transiently expressed on HEK293 cells (Homo sapiens (Human), UniProt Q14002 36-242)
T5 sequence: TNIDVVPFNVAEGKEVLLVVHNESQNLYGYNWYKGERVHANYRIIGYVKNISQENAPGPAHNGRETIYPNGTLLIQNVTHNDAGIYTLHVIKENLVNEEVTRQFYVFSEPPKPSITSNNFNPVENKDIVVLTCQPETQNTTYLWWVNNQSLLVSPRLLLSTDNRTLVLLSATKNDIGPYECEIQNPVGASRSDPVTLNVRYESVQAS

T6: full-length human CEA on cells (MKN45, LOVO, L929/huCEA, CT26/CEA, CT26-OS8-CEA) (human, UniProt P06731 35-685)
T6 construct: also called CEACAM5; native CEA
T6 sequence: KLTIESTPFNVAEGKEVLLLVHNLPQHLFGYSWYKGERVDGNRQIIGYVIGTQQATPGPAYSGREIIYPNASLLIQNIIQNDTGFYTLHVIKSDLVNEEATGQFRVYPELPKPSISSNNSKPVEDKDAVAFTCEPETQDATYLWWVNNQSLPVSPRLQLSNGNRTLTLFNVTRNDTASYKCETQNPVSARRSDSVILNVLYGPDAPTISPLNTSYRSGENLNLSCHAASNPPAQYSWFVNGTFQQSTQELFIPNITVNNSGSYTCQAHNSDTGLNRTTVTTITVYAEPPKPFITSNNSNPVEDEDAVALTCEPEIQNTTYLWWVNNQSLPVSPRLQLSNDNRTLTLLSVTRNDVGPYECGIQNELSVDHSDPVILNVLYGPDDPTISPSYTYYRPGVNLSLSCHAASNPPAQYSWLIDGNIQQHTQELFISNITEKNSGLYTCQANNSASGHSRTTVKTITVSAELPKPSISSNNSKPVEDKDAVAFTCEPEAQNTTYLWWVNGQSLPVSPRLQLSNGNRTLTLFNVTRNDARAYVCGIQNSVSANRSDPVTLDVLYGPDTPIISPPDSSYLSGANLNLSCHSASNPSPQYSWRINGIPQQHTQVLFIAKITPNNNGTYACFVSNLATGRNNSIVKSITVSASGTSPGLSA


What was measured:
human CD137 ECD-mIgG2a [1] = target: T7, human CD137 ECD-mIgG2a (human); assay: SPR, A-CEAxCD137 format
T7 construct: ECD 24-183 of huCD137 fused to mouse IgG2a Fc; also called huCD137-mIgG2a; huCD137
T7 sequence (chain, as listed by the source limits assumed): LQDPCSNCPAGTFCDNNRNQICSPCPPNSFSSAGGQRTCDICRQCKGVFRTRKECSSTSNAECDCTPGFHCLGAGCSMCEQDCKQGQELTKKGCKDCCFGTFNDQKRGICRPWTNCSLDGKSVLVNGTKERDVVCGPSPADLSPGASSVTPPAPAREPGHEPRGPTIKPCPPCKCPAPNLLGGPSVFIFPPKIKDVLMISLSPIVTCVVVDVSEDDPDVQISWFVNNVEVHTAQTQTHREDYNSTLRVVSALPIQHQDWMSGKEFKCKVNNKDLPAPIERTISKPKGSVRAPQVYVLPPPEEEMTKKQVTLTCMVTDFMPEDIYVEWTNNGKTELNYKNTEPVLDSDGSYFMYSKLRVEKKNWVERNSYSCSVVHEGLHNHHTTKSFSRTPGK
Experimental: Characterization of anti-huCD137 VH domain antibodies were made by SPR assays using BIAcore™ T-200 (GE Life Sciences). Briefly, anti-human IgG (Fc) antibody was immobilized on an activated CM5 biosensor chip (Cat.: BR100839, GE Life Sciences). Anti-huCD137 domain antibodies were flowed over the chip surface and captured by anti-human IgG (Fc) antibody. […] The equilibrium dissociation constant (KD) was calculated as the ratio koff/kₒₙ.
Affinity comparison on CD137 affinity matured variants was made by SPR assays using BIAcore™ T-200 (GE Life Sciences) and flow cytometry as described.

human CD137 ECD-mIgG2a [2] = target: T7, human CD137 ECD-mIgG2a; assay: SPR, Format A-CEAxCD137
[3] = target: T8, full-length human CD137 on cells (Hut78/huCD137, HEK293 transfectants, JK-NFKB-CD137) (human, UniProt Q07011 24-255); assay: flow cytometry on Hut78/huCD137 cells
T8 construct: also called native CD137; TNFRSF9
T8 sequence (Q07011 24-255 limits assumed): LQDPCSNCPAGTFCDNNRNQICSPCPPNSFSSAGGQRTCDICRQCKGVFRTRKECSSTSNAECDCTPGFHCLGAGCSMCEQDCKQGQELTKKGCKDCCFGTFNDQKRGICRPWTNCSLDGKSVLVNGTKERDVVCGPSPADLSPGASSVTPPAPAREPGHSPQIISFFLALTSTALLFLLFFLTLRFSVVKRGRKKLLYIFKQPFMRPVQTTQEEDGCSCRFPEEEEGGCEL

[4] = target: T1, CEACAM3 transiently expressed on HEK293 …; assay: flow cytometry on transfected HEK293 cells
Text: (§1) Cell fluorescence was quantified using a flow cytometer (Guava easyCyte™ 8HT, Merck-Millipore, USA).

[5] = target: T2, human CEACAM6, amino acids 1-320 with …; assay: antigen ELISA, antigens coated at 10 µg/ml, anti-human Fc-HRP [panel A]
[6] = target: T3, CEACAM1 (Cat. No. 10822-H08H, Sino …); assay: as above
[7] = target: T4, CEACAM8 transiently expressed on HEK293 …; assay: flow cytometry on transiently transfected HEK293 cells [panel B]
Text: as §1

[8] = target: T5, CEACAM7 transiently expressed on HEK293 …; assay: as above
Text: as §1

[9] = target: T6, full-length human CEA on cells (MKN45, …); assay: flow cytometry on MKN45 cells, no soluble CEA
Experimental: The mixtures were then incubated with 2×10⁵ CEA expressing cells, such as MKN45 cells for 30 minutes at 4° C.

Binder	Kd (human CD137 ECD-mIgG2a [1])	Kd (human CD137 ECD-mIgG2a [2])	EC50 [3]	binding result [4]	binding result [5]	binding result [6]	binding result [7]	binding result [8]	EC50 (read off the curve) [9]
Format A-BGA-7556 (bispecific antibody, human IgG1, kappa, also called BGA-7556 Format A-CEAxCD137) heavy: QVQLVQSGAEVKKPGASVKVSCKASGYIFTSYYLHWVRQAPGQGLEWIGYINPQTGKTSYAQKFQGRVTMTRDTSTSTVYMELSSLRSEDTAVYYCAREYGNYNYPLDYWGQGTLVTVSSASTKGPSVFPLAPSSKSTSGGTAALGCLVKDYFPEPVTVSWNSGALTSGVHTFPAVLQSSGLYSLSSVVTVPSSSLGTQTYICNVNHKPSNTKVDKKVEPKSCDKTHTCPPCPAPPAAGPSVFLFPPKPKDTLMISRTPEVTCVVVDVSHEDPEVKFNWYVDGVEVHNAKTKPREEQYNSTYRVVSVLTVLHQDWLNGKEYKCKVSNKALAAPIEKTISKAKGQPREPQVYTLPPSREEMTKNQVSLTCLVKGFYPSDIAVEWESNGQPENNYKTTPPVLDSDGSFFLYSKLTVDKSRWQQGNVFSCSVMHEALHNHYTQKSLSLSPGKGGGGSEVQLLESGGGLVQPGGSLRLSCAASGFTLSAEDVGWVRQAPGKGLEWVSAILDFGGSTYYAESVKGRFTISRDNAKNTLYLQMSSLRAEDTAVYYCARVVYHAGGGVTFDYRGQGTQVTVSS light: DIQMTQSPSSLSASVGDRVTITCRASENQYGYLAWYQQKPGKVPKLLIYNYKNLVEGVPSRFSGSGSGTDFTLTISSLQPEDVATYYCQHHLGTPYTFGQGTKVEIKRTVAAPSVFIFPPSDEQLKSGTASVVCLLNNFYPREAKVQWKVDNALQSGNSQESVTEQDSKDSTYSLSSTLTLSKADYEKHKVYACEVTHQGLSSPVTKSFNRGEC	649 nM	669 nM	3.23 µg/mL						
BGA113K (BGA113 with Y57K in the heavy chain) (antibody, human IgG1, V domains shown) VH: QVQLVQSGAEVKKPGASVKVSCKASGYIFTSYYLHWVRQAPGQGLEWIGYINPQTGKTSYAQKFQGRVTMTRDTSTSTVYMELSSLRSEDTAVYYCAREYGNYNYPLDYWGQGTLVTVSS VL: DIQMTQSPSSLSASVGDRVTITCRASENQYGYLAWYQQKPGKVPKLLIYNYKNLVEGVPSRFSGSGSGTDFTLTISSLQPEDVATYYCQHHLGTPYTFGQGTKVEIK				no binding (tested: 2 ug/ml)	no binding (tested: not shown)	no binding (tested: not shown)	no binding (tested: 2 µg/ml (not on the sheet))	no binding (tested: 2 µg/ml (not on the sheet))	~0.8 µg/mL
